assay: label from the status in PepcDB records

Q: For “MLDKLTVWIENHLAGPMAKIANQRHLRAVRDGIIATLPLIIVGSFFLIIAFPPLPESWGITQFLTSNAATILLPYRMTMYIMALYATFGIGASLAKSYNLDQVSGGILATIAFLLTLVPVAIPEEASKAAGVSGFVLPMANLGGAGMFVGIVTSIIAVEIYRVTDKSKFKITMPDNVPPAVARSFESLTPTLIVMLLIGSITYYLGFDWHTFVGNLVGPLVQAADSLLSVLLLVFLTTFFWFFGIHGASIVGSLARPLWLQLLEENTTAKAAGEALPRIAAEPFYQWFIWIGGAGATIGLAILLAFRAKSEYGSKLGKAILAPSIFNINEPVIFGVPIVLNPILMIPFIFAPMVLATIAWFATKLGLVSEVVFTAPWTLPGPIGAFMATGGDWRAAVLNIVLILVAILIYYPFFVAYDKNELAKEQGKQIEE”, which protein production is on record?
A: The protein production was “failed”.

Q: Which protein production does the source give for “MLDNLQLTDILATVAVLVSITFLIYFAGKTLITANSFQKGVSLYQQKDYPGAEAAFRKVIAINSTNDVVRLFLGDVLREQGKVAEATELFQEVINRSPKNPQGYLRLATILMQQEKQAEAKTNLQKAQELLQKQRQPETAKRVAKLLEQMNTKTI” here?
A: The protein production was “failed”.

Q: Which protein production does the source give for “MLDTYGRKYVNPIIDLGANTLLKLRLTPNGVSIIALIIGVLSSVFLYFDKLILSVVFLWISGYLDSVDGAMARKKNLTSPFGTLLDITFDRIVELSIIFVLALKFQNSRLYLLILTMMILISMTIFLTVGALAQNNGMKSFRYQAGLAERSEGFICFSLMILLSSIKLNLVTNIFSLIIFITIIQRALEAKRLLK” here?
A: Its protein production is “failed”.

Q: Which protein production does the source give for “MLEAAQGAPASSGRRTRRPGLSEEVLRAYAYACAFCGYDGMLGRNPVGLEAAHIRWHSQDGPDTLANALALCALHHILFGLGVLGLSPGLRIQVSPLYVARSHAGHAVGILHRRPLAPPRPGHPSPGPEHIHWHHQQVFKHAPTPVAR” here?
A: The protein production was “failed”.

Q: Which protein production does the source give for “MLEACTKCGTCAEACTMYLGSGRKKIYSPVYRSDMLRKIYKKHFTLTGKLFGPLIGAKDPTEDDINALAESAYRCTVCRRCALACPFGLDNGLITRETRKIFADLGILEHHHHHH” here?
A: Its protein production is “failed”.

Q: Which protein production does the source give for “MLEGIYLALDKMFGPMLRNTHPMWVVTVSGVILGAFFVLLNYFLVDQEKMKRLQKMAKELQEEFKKARESGDEKKLRKLQQKQLELLRLQNELMKDAFLKPMLITWPIIIIFWGWLKRWYFETAIVKYPFNFFLFDIFHKMYHSALKPDELGYFGWYFLTSYVVGTILRKVLDMA” here?
A: Its protein production is “failed”.

Q: With “MLEGQLEAGEPKEGTHPEDPCPGAGAAMEKTPAAAEVPREDSNAGEMPSLQQQITSLHQELGRQQSLWADIHRKLQSHMDALRKQNRELREELRGLQRQQWEAGKKPAASPHAGRESHTLALEPAFGKISPLSADEETTPKYAGRKSQSATLLGQRWSSNHLAPPKVTLRAYRL” as the sequence, how does the protein production read?
A: Its protein production is “failed”.

Q: For “MLEGVARPSLLRRLSCAPGMPAPVRRLAERIEGSHLATRLAEGAFWSFAGSALSRAFALAASVVTARFLGKAQYGELGVLLSTLLTFQAFASLGLGMTATKYVSELRTKDPERAGRILGMSAVLSAATGVLAAALLWAFAPWLASSTIGAPHLTEPLRIAGLGLVFTTMGGAQTGALAGFEAFRTQTQLNVWLGLLGVPIAVVGVWRWGLQGAVWATVVTAALQWALTHVAVRVHARRDRVPVSPRGWWREQRILWTFSLPALAQGVMVGPVSWAAAAILVNQPGGYPEMGAFSAANQWYAAVLFLPNALCGPVLPVLSERVGRGDGPGVRAVLRAAVAMNAAAVIPIVAAGCLASPWLVRIYGPQFADAWPTFAVVLITAGIVAITNPVGYVLAASERLWLGFLMNSGWAAAFLVATVLLVGWGSLGLATGRLLAYALHFGWTLWFAMRFVRAGAARGT”, which protein production is on record?
A: Its protein production is “failed”.

Q: With “MLEIMLMVCIGALAAVMANLGIAVFNDGIRPIVPENLEGRMTRKELGVTAFAMSFGLVIGFGIPISIAGSIILIHSILLGSDIIGLALDRGKVKTTIAAIIGGLYGAGIYMGLQVVVDLFTMLPLNFVDAFNKVGDPVVVSFMVFPAIAIALQFGVKKGIIAFAIAAFARQLIVFTNGAELIKIGSTPVVLSPEGIALVVGMFLLIFFAMREKSEETNLSTLATLFTDRVARIKKHRWILMLSGGLVAAATNLLLIAGDPISLNLLAEGKMSEGGIAALAKAIGFVPLIASTAIATGVYGPIGFTFVFAAGIFAPNLGIALLIGALIIFLEIQLLTKLATFLDRYPGIRASGENIRTAMSRVLEVALLIGGANAADAIVPGFGFFAIAGFYLINEIAGRPIVRMAIGPVGAIIVGIVGNLLVLLGLYTP” as the sequence, how does the protein production read?
A: The protein production was “failed”.

Q: With “MLELFLKEEWTTEAKEILRPFGQKKLIGIQMGASNRSRQWFVERWIELAKRIIERDEEVVIVFVGSKNELEEISLVAQALPQDRVFISAGRLSLGAAAALIGELGLLFTPDTGPLHIAVALRVKTISLFAVANPKNSLPDYDQSLHRYIKVDRCCEPCVGKRCAYQKCMEAIGVDEVYEEYKKLQELEHHHHHH” as the sequence, how does the protein production read?
A: Its protein production is “not failed”.

Q: With “MLELKNENLTVQFSELGGQIISIKDKDGIEYLWQGEPTYWSGQAPVLFPICGSLRNDWAIYEPAERPTFTGTIPRHGLVRKMLFKNVKSTENSLEFSISSNEETVKNYPFEFELSINYSLFGKTIRIEYRVKNLEGHRKLPYFIGGHPGFNCPLLDGESYEDYYLEFEKVESCTVPRSFPETGLLDLRDRRPFLENQKTLDLSYKLFEYDAITLDQLASRKVTLKSKNHQKKLSIAFDDFPYLVIWSTTNQSPFIALEPWSGLSTSLEESDIFNAKRNISYVAPKEVDTKYFDIIIE” as the sequence, how does the protein production read?
A: Its protein production is “failed”.

Q: For “MLELNAKTTALVVIDLQEGILPFAGGPHTADEVVNRAGKLAAKFRASGQPVFLVRVGWSADYAEALKQPVDAPSPAKVLPENWWQHPAALGATDSDIEIIKRQWGAFYGTDLELQLRRRGIDTIVLCGISTNIGVESTARNAWELGFNLVIAEDACSAASAEQHNNSINHIYPRIARVRSVEEILNAL”, which protein production is on record?
A: The protein production was “not failed”.

Q: Which protein production does the source give for “MLEMIYFAVVAIVGFFFYRKMNGKPMFGFKKKGKSQGGVEKRTAEKNGKKNKKNTPATEEIDEDNVDFFSAFVEDIKEVENHMIRYHDDTFVLIAEAHPVNYYLLSNAEQEAIDIKIESWLTTLEFNTKVYIQSKFVDLTDPVRKMTETMKGAKDLTPETVLYGQEVIDNLEYWQRSQPRYEQKRYLIYPYKVDISTITADTEEELEEKIVDKAFNELYRRYNASRNLLSKAKISVEMLTKDKLIELLYVAFNRRKAVKARFQDLIENENFSLYSTGETNERKLELMKKVLAEEKAEKSNNGVA” here?
A: The protein production was “failed”.

Q: For “MLEQGTISIHTENIFPIIKKSLYSDHQIFLRELVSNAVDAIQKLKMVSRAGEYAGVVDEPEIQLAIDKDKKTLSITDNGIGMTAEEVKKYINQVAFSSAEEFIHKYQGKSDQPIIGHFGLGFYSSFMVAQKVEIDTLSYQEGAQAVHWSCDGSPEFTLEESSRTTIGTTITLTLLPDEEEYLESARVKNLVKTYCDFMPVPIKLDGEVLNRQKAPWRESPSNLTKEDYLEFYRYLYPFQEEPLLWVHLNTDYPFIINGILYFPKMRPDVDVTKGQIKLFCNQVFVSDNCEEIIPQFLVPMRGVIDSTDIPLNVSRSALQGDRTVRKIGDYIAKKVGDRLKELYRDDREQYISAWKDLSTFVKFGVLNDEKFKKQVEDIIIFRSTVKWEQPAETPAVEVQSQEGDVWQDITPSPDSPTPGLPYTTLKEYLERNKERHENRVFYSTDEATQATYIELHKNQGLEVLFLDSFIDTHFINFLEQEYQDVKFTRVDSDLDNTLLEQDKAGEIVDPTTNKTKSEIIKELFEKSLNKPKVNIRTEALKSDDPQGTPPAIVLLPEFLRRMREMTAMMQQQNADFPEDHILLVNTAHPLIQNLVNLNQGAIIQGDGESTTNPLVNLICQHVYDLALMSQKGFDAEGMKSFVERSNDVLTKLTQQAKN”, which protein production is on record?
A: The protein production was “failed”.

Q: Which protein production does the source give for “MLEYKKILVPVEGSPKGELALKKAIFVAKRNHAHLDILTVIQSSRFLDVYGHMGSNMDYVEVSLRRAKEYVEDLKDQIKRKYDFEDVEVYVEAGDPKAIIATEMPEKLGTDLIMMGATGLNAFQRAMIGSVADYVTRVALMDVLLVRTELDNLPYSK” here?
A: The protein production was “failed”.

Q: For “MLFDTSPKDNRKDFFDREKEIEKLKGLRAPITLVLGLRRTGKSSIIKIGINELNLPYIYLDLRKFEERNYISYKDFLLELQKEINKLVKRLPSLLKALKNIQGIVIMGNEIKFNWNRKDRLSFANLLESFEQASKDNVIIVLDEAQELVKLRGVNLLPALAYAYDNLKRIKFIMSGSEMGLLYDYLRVEDPESPLFGRAFSTVELKPFSREEAIEFLRRGFQEADIDFKDYEVVYEKIGGIPGWLTYFGFIYLDNKNLDFAINQTLEYAKKLILKEFENFLHGREIARKRYLNIMRTLSKCGKWSDVKRALELEEGIEISDSEIYNYLTQLTKHSWIIKEGEKYCPSEPLISLAFS”, which protein production is on record?
A: The protein production was “not failed”.
